Experimental data: patent US20180119150A1

Molecular target: FLT3 (human) (UniProt P36888)
Experiment: cell-based or functional assay

Chain of UniProt P36888 (P36888 27-993): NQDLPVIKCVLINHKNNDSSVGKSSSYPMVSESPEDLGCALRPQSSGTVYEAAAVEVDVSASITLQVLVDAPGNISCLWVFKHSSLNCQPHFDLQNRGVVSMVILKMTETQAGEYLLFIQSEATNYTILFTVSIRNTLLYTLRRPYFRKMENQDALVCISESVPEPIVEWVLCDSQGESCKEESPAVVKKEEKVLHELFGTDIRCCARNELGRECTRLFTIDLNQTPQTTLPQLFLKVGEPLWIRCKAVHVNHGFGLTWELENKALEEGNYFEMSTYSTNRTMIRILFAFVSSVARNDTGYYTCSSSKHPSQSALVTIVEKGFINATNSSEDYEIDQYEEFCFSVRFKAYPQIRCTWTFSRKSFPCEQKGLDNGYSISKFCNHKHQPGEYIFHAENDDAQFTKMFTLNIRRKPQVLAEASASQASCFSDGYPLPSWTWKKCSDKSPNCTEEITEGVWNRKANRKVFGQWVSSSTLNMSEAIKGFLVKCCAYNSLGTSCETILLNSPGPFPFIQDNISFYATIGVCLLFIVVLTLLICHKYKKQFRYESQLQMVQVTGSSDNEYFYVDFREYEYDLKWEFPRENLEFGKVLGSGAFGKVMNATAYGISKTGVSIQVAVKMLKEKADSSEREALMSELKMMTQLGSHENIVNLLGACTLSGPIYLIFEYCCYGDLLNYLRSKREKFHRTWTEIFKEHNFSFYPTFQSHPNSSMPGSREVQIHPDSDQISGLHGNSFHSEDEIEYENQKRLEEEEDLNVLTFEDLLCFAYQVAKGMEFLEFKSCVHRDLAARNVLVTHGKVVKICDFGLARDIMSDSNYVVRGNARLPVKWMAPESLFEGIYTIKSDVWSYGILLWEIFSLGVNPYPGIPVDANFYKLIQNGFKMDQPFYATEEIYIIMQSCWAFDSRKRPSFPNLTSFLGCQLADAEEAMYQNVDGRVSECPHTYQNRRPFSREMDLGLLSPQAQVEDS

Row | Substance | one-hour uptake ratio [%]
1 | FLT3L-conjugated Generation 7 (G7) PAMAM (G7-FLT3L) dendrimers (from UniProt P49771 27-181) (ligand) | 23.6
2 | G7-H2B control nanoparticles | 5.9
